The results in this text go back to the supplement of paper PMC9112550, “Optimization of the antimicrobial peptide Bac7 by deep mutational scanning” (BMC Biology, 2022).
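Note: peptides expressed intracellularly from a pBAD plasmid library in pooled LB shake-flask culture, induced with 0.3% L-arabinose, DNA abundance read by NGS, three biological replicates, DESeq2 with apeglm shrinkage.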

The subject of the series is Escherichia coli TOP10. The series can be described thus: shrunken log2 fold change of peptide-encoding DNA abundance (4.5 h post-induction vs induction); higher = less antimicrobial activity (less host growth inhibition). The following applies: time post-induction: 4.5 h; library: site-saturation at positions 5, 18, 19, 20.
In the case of RRIRHRPPRLPRPRPRPYYHPRP, the “shrunken log2 fold change” value is -0.339. In the case of RRIRRRPPRLPRPRPRPPYTPRP it was 0.00247; in that of RRIRKRPPRLPRPRPRPHAEPRP, 0.126; in that of RRIRFRPPRLPRPRPRPNCGPRP, -0.0249. The same measure for RRIRLRPPRLPRPRPRPKWSPRP: -0.171; for RRIRIRPPRLPRPRPRPVFSPRP: -0.626. In the case of RRIRMRPPRLPRPRPRPKEYPRP, the “shrunken log2 fold change” value is 0.189.

Consider RRIRERPPRLPRPRPRPAIQPRP, for which the “shrunken log2 fold change” value is -0.337.

RRIRERPPRLPRPRPRPIWAPRP: the “shrunken log2 fold change” value stood at 0.639. The same measure for RRIRCRPPRLPRPRPRPECRPRP: 0.0543; for RRIRQRPPRLPRPRPRPDSMPRP: -0.17.

Take RRIRKRPPRLPRPRPRPQRTPRP: the “shrunken log2 fold change” value was 0.419.

As for RRIRWRPPRLPRPRPRPWDYPRP, the “shrunken log2 fold change” value is -0.0902. As to RRIRMRPPRLPRPRPRPEFNPRP, the “shrunken log2 fold change” value came to 0.301. With RRIRARPPRLPRPRPRPFDDPRP, the “shrunken log2 fold change” value is -0.0122. As to RRIRFRPPRLPRPRPRPAWCPRP, the “shrunken log2 fold change” value amounted to 0.205. With RRIRSRPPRLPRPRPRPRPWPRP, the “shrunken log2 fold change” value amounted to 0.324. Turning to RRIRIRPPRLPRPRPRPQIGPRP, the “shrunken log2 fold change” value is -0.451. In the case of RRIRQRPPRLPRPRPRPPPMPRP it was 0.558; in that of RRIRHRPPRLPRPRPRPPTIPRP, 0.215.

As for RRIRWRPPRLPRPRPRPGGKPRP, the “shrunken log2 fold change” value is 0.227. In the case of RRIRYRPPRLPRPRPRPGIDPRP it was -0.16; in that of RRIRGRPPRLPRPRPRPMPCPRP, 0.104. The same measure for RRIRGRPPRLPRPRPRPKPDPRP: 1.11. The same measure for RRIRMRPPRLPRPRPRPRIIPRP: -0.138; for RRIRWRPPRLPRPRPRPGNHPRP: -0.163; for RRIRWRPPRLPRPRPRPTGCPRP: 0.141. For the sequence RRIRDRPPRLPRPRPRPTQTPRP, the “shrunken log2 fold change” value worked out at 0.121. The same measure for RRIRCRPPRLPRPRPRPVVCPRP: 0.113; for RRIRPRPPRLPRPRPRPQDVPRP: -0.373; for RRIRMRPPRLPRPRPRPHLTPRP: -0.0375.

Take RRIRERPPRLPRPRPRPHDIPRP: the “shrunken log2 fold change” value was -0.0102. For the sequence RRIRARPPRLPRPRPRPVYTPRP, the “shrunken log2 fold change” value was -0.159. The same measure for RRIRGRPPRLPRPRPRPNSRPRP: 0.107; for RRIRRRPPRLPRPRPRPADHPRP: -0.115. As for RRIRQRPPRLPRPRPRPMWAPRP, the “shrunken log2 fold change” value is -0.127. In the case of RRIRCRPPRLPRPRPRPEKNPRP, the “shrunken log2 fold change” value was 0.165. The same measure for RRIRYRPPRLPRPRPRPVMDPRP: -0.122.

Regarding RRIRVRPPRLPRPRPRPHHAPRP, the “shrunken log2 fold change” value was -0.0431. The same measure for RRIRTRPPRLPRPRPRPSPNPRP: -0.337; for RRIRKRPPRLPRPRPRPHTHPRP: -0.0896. In the case of RRIRHRPPRLPRPRPRPQTLPRP it was -0.313; in that of RRIRRRPPRLPRPRPRPLWCPRP, 0.186. In the case of RRIRYRPPRLPRPRPRPMHAPRP it was 0.495. As to RRIRWRPPRLPRPRPRPADGPRP, the “shrunken log2 fold change” value is 0.0472. In the case of RRIRHRPPRLPRPRPRPECDPRP it was -0.0404; in that of RRIRERPPRLPRPRPRPHDVPRP, 0.00785; in that of RRIRARPPRLPRPRPRPACRPRP, 0.896. In the case of RRIRQRPPRLPRPRPRPNNYPRP it was -0.53; in that of RRIRYRPPRLPRPRPRPLSDPRP, -0.108; in that of RRIRFRPPRLPRPRPRPRIMPRP, -0.624. In the case of RRIRKRPPRLPRPRPRPMPRPRP it was 0.276; in that of RRIRKRPPRLPRPRPRPLGDPRP, 0.227.

As for RRIRPRPPRLPRPRPRPSVFPRP, the “shrunken log2 fold change” value is -0.0552. The same measure for RRIRCRPPRLPRPRPRPEEKPRP: 0.0239; for RRIRWRPPRLPRPRPRPIYHPRP: -0.305. The same measure for RRIRERPPRLPRPRPRPGQVPRP: 0.126; for RRIRDRPPRLPRPRPRPYRNPRP: -0.00595. On to RRIRCRPPRLPRPRPRPWDNPRP, for which the “shrunken log2 fold change” value was -0.291. In the case of RRIRDRPPRLPRPRPRPEMPPRP it was 0.0164; in that of RRIRERPPRLPRPRPRPQQRPRP, 0.0285; in that of RRIRSRPPRLPRPRPRPNRKPRP, -0.596.

Consider RRIRKRPPRLPRPRPRPCCPPRP, for which the “shrunken log2 fold change” value is -0.044. The same measure for RRIRDRPPRLPRPRPRPECDPRP: 1.39; for RRIRFRPPRLPRPRPRPYTRPRP: -0.369; for RRIRGRPPRLPRPRPRPPCKPRP: 0.339. Take RRIRPRPPRLPRPRPRPNWRPRP: the “shrunken log2 fold change” value is 0.392. Consider RRIRQRPPRLPRPRPRPTKAPRP, for which the “shrunken log2 fold change” value is 0.0785. In the case of RRIRGRPPRLPRPRPRPSEAPRP it was 0.848. The same measure for RRIRKRPPRLPRPRPRPQREPRP: 0.749; for RRIRHRPPRLPRPRPRPRLNPRP: -0.249. In the case of RRIRWRPPRLPRPRPRPREYPRP it was 0.0698; in that of RRIRSRPPRLPRPRPRPMKTPRP, 0.0178. RRIRTRPPRLPRPRPRPMKQPRP: the “shrunken log2 fold change” value is -0.0631. In the case of RRIRKRPPRLPRPRPRPFVCPRP it was 0.0717. In the case of RRIRYRPPRLPRPRPRPRSEPRP it was 0.0596. In the case of RRIRIRPPRLPRPRPRPTISPRP it was -0.385; in that of RRIRCRPPRLPRPRPRPIYRPRP, -0.318. On to RRIRFRPPRLPRPRPRPPLVPRP, for which the “shrunken log2 fold change” value was 0.23. The same measure for RRIRVRPPRLPRPRPRPTNRPRP: 3.75; for RRIRQRPPRLPRPRPRPLFSPRP: -0.258; for RRIRHRPPRLPRPRPRPPNHPRP: -0.442. On to RRIRMRPPRLPRPRPRPYSDPRP, for which the “shrunken log2 fold change” value is -0.329. The same measure for RRIRYRPPRLPRPRPRPSLLPRP: -0.727.

Regarding RRIRSRPPRLPRPRPRPYPSPRP, the “shrunken log2 fold change” value is -0.203.

For the sequence RRIRSRPPRLPRPRPRPSPYPRP, the “shrunken log2 fold change” value was -0.672.

As for RRIRFRPPRLPRPRPRPTPIPRP, the “shrunken log2 fold change” value is 0.485. The same measure for RRIRYRPPRLPRPRPRPLGQPRP: -0.261; for RRIRFRPPRLPRPRPRPRMMPRP: -0.404.

On to RRIRCRPPRLPRPRPRPCMTPRP, for which the “shrunken log2 fold change” value was -0.114.

As for RRIRARPPRLPRPRPRPATDPRP, the “shrunken log2 fold change” value was found to be 1.53. The same measure for RRIRSRPPRLPRPRPRPRDRPRP: 0.271; for RRIRKRPPRLPRPRPRPSEAPRP: 0.401. The same measure for RRIRDRPPRLPRPRPRPHGIPRP: -0.265. As to RRIRHRPPRLPRPRPRPDCNPRP, the “shrunken log2 fold change” value is -0.18.

With RRIRVRPPRLPRPRPRPYGPPRP, the “shrunken log2 fold change” value was -0.041. In the case of RRIRYRPPRLPRPRPRPGIWPRP it was 0.138; in that of RRIRKRPPRLPRPRPRPAVPPRP, 0.275; in that of RRIRHRPPRLPRPRPRPDVIPRP, 0.0849. The same measure for RRIRCRPPRLPRPRPRPVEMPRP: 0.0203; for RRIRQRPPRLPRPRPRPKPDPRP: 0.313. The same measure for RRIRARPPRLPRPRPRPSALPRP: 0.591; for RRIRGRPPRLPRPRPRPTFDPRP: 0.548. As for RRIRMRPPRLPRPRPRPGLSPRP, the “shrunken log2 fold change” value amounted to 0.795.

For the sequence RRIRCRPPRLPRPRPRPKLIPRP, the “shrunken log2 fold change” value is -0.0459.

With RRIRIRPPRLPRPRPRPMKTPRP, the “shrunken log2 fold change” value was -0.057. The same measure for RRIRCRPPRLPRPRPRPACYPRP: 0.0371; for RRIRDRPPRLPRPRPRPMNKPRP: -0.381; for RRIRLRPPRLPRPRPRPEQVPRP: -0.117. In the case of RRIRQRPPRLPRPRPRPLDSPRP, the “shrunken log2 fold change” value is -0.00448.

Regarding RRIRQRPPRLPRPRPRPTDMPRP, the “shrunken log2 fold change” value is -0.0372.

For RRIRQRPPRLPRPRPRPNCFPRP, the “shrunken log2 fold change” value turned out to be 0.0427.

Regarding RRIRQRPPRLPRPRPRPYSCPRP, the “shrunken log2 fold change” value is 0.0133. In the case of RRIRRRPPRLPRPRPRPAPCPRP it was 0.884; in that of RRIRIRPPRLPRPRPRPSAIPRP, -0.0599.

For RRIRGRPPRLPRPRPRPRNKPRP, the “shrunken log2 fold change” value stood at 0.765. The same measure for RRIRIRPPRLPRPRPRPARNPRP: -0.179. In the case of RRIRKRPPRLPRPRPRPQVVPRP it was -0.0176.

For RRIRRRPPRLPRPRPRPYSAPRP, the “shrunken log2 fold change” value is -0.137. The same measure for RRIRTRPPRLPRPRPRPAQCPRP: 0.18; for RRIRHRPPRLPRPRPRPNCQPRP: 0.358. The same measure for RRIRVRPPRLPRPRPRPEYHPRP: -0.287; for RRIRSRPPRLPRPRPRPCPLPRP: -0.823; for RRIRFRPPRLPRPRPRPLDAPRP: 0.0999. The same measure for RRIRWRPPRLPRPRPRPRDQPRP: -0.033.
